Laboratory results reported in paper PMC13458718, “HSV-1 origin binding protein UL9 forms intermolecular DNA tethers and intramolecular DNA loops” (Nature Communications, 2026).

Experiments:
[1] = target: T1, HSV-1 UL9 (origin-binding protein UL9) (Human alphaherpesvirus 1 strain 17, UniProt P10193); test: single-molecule TIRF (ALEX), UL9-atto647N dwell time on oriS DNA; details: 1 mM ATPγS, 20 nM UL9-atto647N, 1 mM MgCl2, pH 7.5; not an affinity constant
T1 construct: full ORF from plasmid pCM-UL9, C-terminal 3C-ybbR-TEV-StrepII tag, insect cells (Sf9/High5), StrepTrap and heparin; dimer; tag kept in unlabeled protein, TEV added on atto647N labelling

[2] = target: T2, UL9 origin-binding protein (Human herpesvirus 1 (HSV-1)) (UniProt P10193); test: EMSA; details: C6-amino-dT at 5' end of strand 1 and internal (position 10) in strand 2; UL9 buffer: 40 mM Tris-Cl pH 7.5, 50 mM NaCl, 50 mM K-glutamate, 1 mM MgCl2, 0.5 mM DTT, 0.1 mg/ml BSA; EMSA at room temperature, 5 min; TIRF with oxygen …
T2 sequence: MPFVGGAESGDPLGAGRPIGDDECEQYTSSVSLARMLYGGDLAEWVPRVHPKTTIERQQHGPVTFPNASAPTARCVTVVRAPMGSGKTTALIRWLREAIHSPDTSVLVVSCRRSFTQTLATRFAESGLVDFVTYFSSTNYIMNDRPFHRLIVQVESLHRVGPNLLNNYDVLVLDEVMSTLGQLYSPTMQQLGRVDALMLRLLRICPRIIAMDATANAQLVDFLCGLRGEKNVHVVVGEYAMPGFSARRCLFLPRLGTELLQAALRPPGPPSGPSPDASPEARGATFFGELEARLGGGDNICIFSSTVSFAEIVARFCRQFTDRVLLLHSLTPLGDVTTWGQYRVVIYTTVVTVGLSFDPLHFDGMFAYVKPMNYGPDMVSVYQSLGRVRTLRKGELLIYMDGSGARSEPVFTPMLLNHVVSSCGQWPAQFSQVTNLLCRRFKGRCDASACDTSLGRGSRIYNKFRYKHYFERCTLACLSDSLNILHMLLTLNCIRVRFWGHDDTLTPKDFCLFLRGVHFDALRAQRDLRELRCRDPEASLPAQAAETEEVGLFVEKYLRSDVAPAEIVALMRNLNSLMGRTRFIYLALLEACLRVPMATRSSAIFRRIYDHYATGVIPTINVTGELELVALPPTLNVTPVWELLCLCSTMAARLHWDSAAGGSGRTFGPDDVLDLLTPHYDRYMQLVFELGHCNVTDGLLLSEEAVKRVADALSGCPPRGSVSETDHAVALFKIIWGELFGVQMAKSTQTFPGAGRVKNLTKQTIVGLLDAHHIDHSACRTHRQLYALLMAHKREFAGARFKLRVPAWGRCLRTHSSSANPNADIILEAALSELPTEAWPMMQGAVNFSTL

[3] = target: T3, UL9-atto647N (Human herpesvirus 1 (HSV-1)) (UniProt P10193); test: single-molecule TIRF/FRET; details: C6-amino-dT at 5' end of strand 1 and internal (position 10) in strand 2; UL9 buffer: 40 mM Tris-Cl pH 7.5, 50 mM NaCl, 50 mM K-glutamate, 1 mM MgCl2, 0.5 mM DTT, 0.1 mg/ml BSA; EMSA at room temperature, 5 min; TIRF with oxygen …
T3 sequence: T2 sequence

[4] = target: UL9 origin-binding protein (Human herpesvirus 1 (HSV-1), UniProt P10193 1-851); test: single-molecule TIRF DNA capture; trans tethering to immobilized oriS (30.0 ± 6.9% of molecules); 20 nM UL9, no ATP; UL9 buffer: 40 mM Tris-Cl pH 7.5, 50 mM NaCl, 50 mM K-glutamate, 1 mM MgCl2, 0.5 mM DTT, 0.1 mg/ml BSA; EMSA at room temperature, 5 min; TIRF with oxygen scavenger; details: protein: recombinant; tags: C-terminal 3C-ybbR-TEV-StrepII; chain copies: 2; label: Cy5 on strand 1; strand 1 5' overhang 1 nt (amino-dT)
[5] = target: the molecule itself; test: single-molecule photobleaching steps (prism-TIRF with alternating laser excitation)

Nc1ncnc2c1ncn2[C@@H]1O[C@H](COP(=O)(O)OP(=O)(O)OP(O)(O)=S)[C@@H](O)[C@H]1O [ATPγS]
τon, avg [1]: 4.2 ± 0.1 s

TCCAGTGCTCGCACTTCGCCCTAATAATATATATATATTGGGACGAAGTGCGAACGCTTCGCGTTCTCACTTC / AAAAAAAAATGAAGTGAGAACGCGAAGCGTTCGCACTTCGTCCCAATATATATATATTATTAGGGCGAAGTGCGAGCACTGG [oriS template AM057/AM071]
K half [2]: 13 nM | Kd [2]: 131 nM | Kd [3]: 31.9 nM

B1: Cy5-oriS capture DNA AM057/AM058 (dsDNA)
DNA 1: TCCAGTGCTCGCACTTCGCCCTAATAATATATATATATTGGGACGAAGTGCGAACGCTTCGCGTTCTCACTTC
DNA 2: GAAGTGAGAACGCGAAGCGTTCGCACTTCGTCCCAATATATATATATTATTAGGGCGAAGTGCGAGCACTGG
modifications: C6-amino-dT at 5' end of strand 1
binding result [4]: binds

B2: HSV-1 origin-binding protein UL9 labelled at its C-terminus with atto647N through a ybbR-tag (natural protein)
chain: T2 sequence
modifications: atto647N (CoA-conjugated dye, attached by Sfp transferase) on the C-terminal ybbR tag
notes: also called UL9-atto647N; not shown: ybbR, C-terminal, kept; strepII, C-terminal, cleaved
stoichiometry N [5]: 2
